Literature values in publication PMC10330345.
pKd: −log10 of the molar value.

Biological target: BTN3A1 272-513 (Homo sapiens) (UniProt O00481)
Assay: ITC

BTN3A1 272-513 (Homo sapiens), sequence (O00481 272-513): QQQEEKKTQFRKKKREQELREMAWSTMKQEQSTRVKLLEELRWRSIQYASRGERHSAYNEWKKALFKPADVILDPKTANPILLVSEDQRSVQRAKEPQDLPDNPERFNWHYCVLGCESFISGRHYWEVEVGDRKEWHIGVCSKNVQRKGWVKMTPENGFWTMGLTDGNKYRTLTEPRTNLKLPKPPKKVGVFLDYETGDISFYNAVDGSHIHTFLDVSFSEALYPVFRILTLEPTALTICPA

pKd: 6.05
Substance: BTN2A1 271-527 (from UniProt Q7KYR7)
